# Measured values: patent US10106589B2, “Compositions and methods for immunomodulation” (FUNDACIO INSTITUT D'INVESTIGACIO BIOMEDICA DE BELLVITGE …, priority 2011, dated 2018)
# B1: C4BP α7β1: major C4BP isoform, 7 identical α-chains and 1 β-chain, purified from pooled human plasma (protein, UniProt P04003 49-597; P20851 18-252, looked up)
# C4b-binding protein alpha …: NCGPPPTLSFAAPMDITLTETRFKTGTTLKYTCLPGYVRSHSTQTLTCNSDGEWVYNTFCIYKRCRHPGELRNGQVEIKTDLSFGSQIEFSCSEGFFLIGSTTSRCEVQDRGVGWSHPLPQCEIVKCKPPPDIRNGRHSGEENFYAYGFSVTYSCDPRFSLLGHASISCTVENETIGVWRPSPPTCEKITCRKPDVSHGEMVSGFGPIYNYKDTIVFKCQKGFVLRGSSVIHCDADSKWNPSPPACEPNSCINLPDIPHASWETYPRPTKEDVYVVGTVLRYRCHPGYKPTTDEPTTVICQKNLRWTPYQGCEALCCPEPKLNNGEITQHRKSRPANHCVYFYGDEISFSCHETSRFSAICQGDGTWSPRTPSCGDICNFPPKIAHGHYKQSSSYSFFKEEIIYECDKGYILVGQAKLSCSYSHWSAPAPQCKALCRKPELVNGRLSVDKDQYVEPENVTIQCDSGYGVVGPQSITCSGNRTWYPEVPKCEWETPEGCEQVLTGKRLMQCLPNPEDVKMALEVYKLSLEIEQLELQRDSARQSTLDKEL
# C4b-binding protein beta chain: SDAEHCPELPPVDNSIFVAKEVEGQILGTYVCIKGYHLVGKKTLFCNASKEWDNTTTECRLGHCPDPVLVNGEFSSSGPVNVSDKITFMCNDHYILKGSNRSQCLEDHTWAPPFPICKSRDCDPPGNPVHGYFEGNNFTLGSTISYYCEDRYYLVGVQEQQCVDGEWSSALPVCKLIQEAPKPECEKALLAFQESKNLCEAMENFMQQLKESGMTMEELKYSLELKKAELKAKLL
# B2: C4BP (β^−): C4BP isoforms lacking beta chain: C4BP (α7β0) or C4BP (α6β0) (protein, UniProt P04003 49-597, looked up)
# C4b-binding protein alpha …: NCGPPPTLSFAAPMDITLTETRFKTGTTLKYTCLPGYVRSHSTQTLTCNSDGEWVYNTFCIYKRCRHPGELRNGQVEIKTDLSFGSQIEFSCSEGFFLIGSTTSRCEVQDRGVGWSHPLPQCEIVKCKPPPDIRNGRHSGEENFYAYGFSVTYSCDPRFSLLGHASISCTVENETIGVWRPSPPTCEKITCRKPDVSHGEMVSGFGPIYNYKDTIVFKCQKGFVLRGSSVIHCDADSKWNPSPPACEPNSCINLPDIPHASWETYPRPTKEDVYVVGTVLRYRCHPGYKPTTDEPTTVICQKNLRWTPYQGCEALCCPEPKLNNGEITQHRKSRPANHCVYFYGDEISFSCHETSRFSAICQGDGTWSPRTPSCGDICNFPPKIAHGHYKQSSSYSFFKEEIIYECDKGYILVGQAKLSCSYSHWSAPAPQCKALCRKPELVNGRLSVDKDQYVEPENVTIQCDSGYGVVGPQSITCSGNRTWYPEVPKCEWETPEGCEQVLTGKRLMQCLPNPEDVKMALEVYKLSLEIEQLELQRDSARQSTLDKEL
# Legend:
# human Mo-DCs [1] = test: Quantitative RT-PCR of CCR7, IDO, BIC-1, SOD2 in Mo-DCs; format: cell-based; design: key to IDO / BIC-1: (−) negligible; (+) low; (++) moderate; (+++) high
# Experimental: Mo-DCs (10^6/condition) were harvested at day 7 and the mRNA was extracted using the RNeasy RNA Isolation kit (Qiagen) and incubated with RNase-free DNase I (Ambion, Austin, Tex.) according to the manufacturer's protocol. A two-step real-time RT-PCR technique was used to determine the relative mRNA levels of human CCR7, BIC-1, IDO and SOD2. Reverse transcription reactions were performed with 500 ng of total RNA using the Omniscript RT kit (Qiagen). Quantification of mRNA levels was performed by real-time polymerase chain reaction (PCR) with the use of the LightCycler technology (Roche Molecular Biochemicals, Indianapolis, Ind.). The following primers were used: CCR7-f (5′-TGGGCATCTGGATACTAGC-3′) (SEQ ID NO:6), CCR7-r (5′-AAGAAAGGGTTGACGCAGC-3′) (SEQ ID NO:7); IDO-f (5′-[…]-3′) (SEQ ID NO:8); IDO-r (5′-[…]-3′) (SEQ ID NO:9); BIC-1-f (5′-[…]-3′) (SEQ ID NO:10), BIC-1-r (5′-[…]-3′) (SEQ ID NO:11); SOD2-f (5′-GACAAACCTCAGCCCTAAC-3′) (SEQ ID NO:12), SOD2-r (5′-[…]-3′) (SEQ ID NO:13), yielding products of 435, 227, 296 bp, and 248 bp, respectively. These gene-specific primer pairs were designed using Oligo 4.0 and Primer 3 software packages (MBI, Cascade, Colo.) and selected to prevent primer-dimer formation.
# All samples were normalized with the use of the following primer set for the constitutively expressed human cyclophilin gene: CypA-f (5′-[…]-3′) (SEQ ID NO:14) and CypA-r (5′-CACCACATGCTTGCCATCC-3′) (SEQ ID NO:15) (Pluvinet R. et al., 2004, Blood. 104: 3642-3646). All primers were purchased from Bonsai Technologies (Copenhagen, Denmark).
# PCR amplifications were performed in a 20 μl volume containing 2 μl ready-to-use reaction mix, 10×DNA Master SYBR Green I (Roche Molecular Biochemicals); MgCl2 (3 mM for CCR7; 4 mM for BIC-1 and SOD2, and 5 mM for IDO); 0.15 μM of each primer; 5% dimethyl sulfoxide (DMSO); and 75 ng cDNA as template. The amplification program used an initial denaturation at 95° C. for 10 min, followed by 45 cycles: 95° C. for 1 sec; 58° C. (CCR7 and SOD2)/60° C. (BIC-1 and IDO) for 5 sec; 72° C. for 10 sec.
# LPS-matured human Mo-DCs = test: DC cytokine secretion (Th1/Th2 Flow cytomix Multiplex); format: cell-based; design: key to IL-12 / IL-6 / IL-8 / IL-10 / TNF-α / IFN-γ: (−) negligible; (+) low; (++) moderate; (+++) high
# Experimental: Concentrations of IL-12p70, TNF-α, IFN-γ, IL-10, IL-6 and IL-8, were determined from DC supernatants treated with the C4BP isoforms α7β1 and α7β0 using the Th1/Th2 Flow cytomix Multiplex kit (Bender-Medsystems, Viena, Austria), according to the manufacturer's instructions.
# CD3+ T lymphocytes = test: Determination of CD4+ CD127low/negative CD25high Foxp3+ T cells; format: cell-based, human; details: T cells stimulated 6 days with treated, LPS-matured DCs
# Experimental: CD3^+ T lymphocytes were purified from mononuclear cells by negative selection using an EasySep® Human T Cell Enrichment Kit (StemCell Technologies) following the manufacturer's instructions. Purity was >95% in all experiments. Enriched T cells were plated (10^5 cells/well) in 96-well round-bottom plates. […] Stained cells were analysed using a FACSCanto II (Becton Dickinson) and the results were analysed using FlowJo software (Tree Star, Inc, OR, USA).
# human Mo-DCs [2] = test: Apoptosis determination (Annexin V / 7-ADD); format: cell-based; design: key: (−) negligible; (+) low; (++) moderate; (+++) high; details: viability; treated and LPS-induced DCs
# Excerpt: Double staining using with the fluorescent dyes Annexin V (Annexin V-PE Apoptosis Detection Kit I, BD Pharmigen, San Diego, Calif.) and 7-amino-actinomycin D (7-ADD) (BD Pharmigen), and flow cytometry analysis, was employed to assess the viability/apoptosis status of C4BP α7β1-, C4BP α7β0-, recC4BP α6β0-, or Factor H-treated and untreated Mo-DCs.
# LPS-matured DCs = test: Phenotype stability after re-stimulation with TNF-alpha+IFN-gamma; format: cell-based, human; details: TNF-alpha+IFN-gamma for 24 h without immunomodulatory agents
# Experimental: The stability of C4BP(β−)- or FH-treated and LPS-matured DCs was evaluated after further 24 h of induction with pro-inflammatory TNF-alpha (100 U/ml)+IFN-gamma (1000 U/ml) in complete medium without immunomodulatory agents (C4BP(β−) or FH). Median fluorescence intensities (MIF) of DC markers CD83 (A) and CD86 (B) were determined for all DC conditions (with or without TNF-alpha+IFN-gamma). iDC, immature DCs; mDC, untreated LPS-matured DCs; B-5, C4BP(β−)-treated (5 μg/ml) and LPS-matured DCs; WT5, C4BP(β+)-treated (5 μg/ml) and LPS-matured DCs; Rec2, recombinant C4BP(β−)-treated (2 μg/ml) and LPS-matured DCs; FH5, FH-treated (5 μg/ml) and LPS-matured DCs (n=6 per group).
# Due to their potential use in the clinical setting, we aimed to study whether an ulterior activation of C4BP(β−)- or FH-treated and LPS-matured DCs would modify the phenotype of these tolerogenic DCs. Therefore, both untreated and C4BP(β−)- or FH-treated DCs were matured with LPS, as previously mentioned, and then re-stimulated without immunomodulatory agents (C4BP(β−) or FH) using TNF-alpha+IFN-gamma for 24 h. […] These tolerogenic C4BP(β−)- or FH-treated DCs were thus phenotypically refractory to secondary stimulation, confirming their stable non-proinflammatory profile.
# immature Mo-DCs = test: Endocytic activity (DQ-OVA uptake); format: cell-based, human; design: key: (−) negligible; (+) low; (++) moderate; (+++) high; details: functional assay
# Experimental: To measure the phagocytic activity of iDCs, 2×10^5 cells/ml were resuspended in 100 μl of PBS and incubated with 4 μl of BODIPY FL-conjugated DQ-Ovalbumin (1 mg/ml, DQ-OVA, Molecular Probes, Leiden, Netherlands) at 37° C. or at 0° C. for 15 min. The incubations were stopped by adding 1 ml of cold FACS buffer. The cells were washed two times with cold FACS buffer and their fluorescence analyzed using a FACScalibur flow cytometer (Becton-Dickinson).
# [3] = transcriptional profile, treated and LPS-induced DCs
# [4] = cytokine, treated and LPS-induced DCs
# [5] = pre-treated at 2 μg/ml, matured with LPS
molecule,measurement,setting,value
B1,CCR7 transcript level,"human Mo-DCs [1]; RT-qPCR, pretreated, LPS-matured Mo-DCs","but not with C4BP α7β1, significantly down-regulated"
same,"release of cytokines (IL-12p70, IL-10, IL-8, IL-6, TNF-α, IFN-γ)","LPS-matured human Mo-DCs; pre-treated Mo-DCs matured with LPS, C4BP 2 μg/ml, Factor H 5 μg/ml",the same cytokine levels than untreated Mo-DCs
B2,BIC-1,human Mo-DCs [1]; [3],+
same,IDO,human Mo-DCs [1]; [3],−
same,"percentage of CD4+Foxp3+ and CD25^high, CD127^low/negative cells",CD3+ T lymphocytes,significant increase
same,Apoptosis after treatment,human Mo-DCs [2],−
same,DC phenotype regarding the CD83 and CD86 markers after re-stimulation,LPS-matured DCs,did not induce significant changes
same,DC viability after re-stimulation,LPS-matured DCs; not shown,did not induce significant changes
same,IFN-γ,LPS-matured human Mo-DCs; [4],−
same,IL-6,LPS-matured human Mo-DCs; [4],+
same,IL-8,LPS-matured human Mo-DCs; [4],++
same,IL-10,LPS-matured human Mo-DCs; [4],+++
same,IL-12,LPS-matured human Mo-DCs; [4],−
same,TNF-α,LPS-matured human Mo-DCs; [4],+
same,production of IL-10,LPS-matured human Mo-DCs; [5],increased the production
same,release of IFN-γ,LPS-matured human Mo-DCs; [5],prevented the release
same,release of IL-6,LPS-matured human Mo-DCs; [5],reduced the release
same,release of IL-8,LPS-matured human Mo-DCs; [5],reduced the release
same,release of IL-12p70,LPS-matured human Mo-DCs; [5],prevented the release
same,release of TNF-α,LPS-matured human Mo-DCs; [5],prevented the release
same,Endocytosis (DQ-OVA),immature Mo-DCs,+
